Reference: patent US11608367B2, “Peptides for angiogenic therapy” (The Regents of the University of California, priority 2018, dated 2023)
Substitutions are numbered along the chain they refer to.

B1: KSQVISNAKNTVQGFKRFHGRAFSDPFVEAEKSNLAYDIVQWPTGLTGIKVTYMEEERNFTTEQVTAMLLSKLKETAESVLKKPVV (peptide)
chain: KSQVISNAKNTVQGFKRFHGRAFSDPFVEAEKSNLAYDIVQWPTGLTGIKVTYMEEERNFTTEQVTAMLLSKLKETAESVLKKPVV
B2: KSQVISNAKNTVQGFKRFHGRAFSDPFVEAEKSNLAYDIVQWPTGLTGIKVTYMEEERNFTIEQVTAMLLSKLKETAESVLKKPVV (peptide)
chain: B1 chain with T62I

Legend:
[1] = tested on: cancer, cardiac and neuronal cell lines; test: Categorisation of active ADPs as pro-/anti-apoptotic (Example 15); settings: criteria of Example 15
[2] = Effectiveness of ADPs (Example 1, Table 6; cell death assays of FIGS. 10-13); assay type: cell-based; settings: ADPs with N-terminal tumor penetrating peptide and C-terminal fluorescent tag; graded in words
From the text: FIGS. 10A-C show the sequences mapped, peptide blots, imaging to show expression and cell death assays for these three peptides. A) PPA-1 (PEPTIDE23) (SEQ ID NO:23), B) PPA4 (PEPTIDE19) (SEQ ID NO:19), C) PPA10 (PEPTIDE16 including FF at C-terminus) (SEQ ID NO:16).
FIGS. 11A-B show the sequences mapped, peptide blots, imaging to show expression and cell death assays for these HSP-70 peptides. A) PHA4 (PEPTIDE5) (SEQ ID NO:5), B) PHA5 (PEPTIDE13 plus C-terminal L) (SEQ IDS NO: 13).
FIGS. 12A-C show the sequences mapped, peptide blots, imaging to show expression and cell death assays for these p65 (RELA) peptides. A) PRA1 (PEPTIDE14) (SEQ ID NO:14), B) PRA8 (PEPTIDE8) (SEQ ID NO:8), C) PRA9 (SEQ ID Nos:33 and 37-45).
FIGS. 13A-D show the sequences mapped, peptide blots, imaging to show expression and cell death assays for these HSP-70 peptides. A) PAA1-1 (PEPTIDE11) (SEQ ID NO:11), B) PPA1-3 (PEPTIDE15) (SEQ ID NO:15), C) PAR1 (PEPTIDE19), D) Paint 1 (PEPTIDE7) (SEQ ID NO:7).
ADPs were first identified using Peptide SPOT analysis. Peptides were identified from AKIP1. PKAc, HSP-70 and p65 sequences. The identified ADPs were attached at the N-terminus to tumor penetrating peptide based on the CENDR rule (FIG. 9). A fluorescent tag was attached to the C-terminus for ease of visualization. […]

Molecule | Pro-apoptotic (anti-angiogenic) category [1] | Effectiveness [2]
B1 | Pro-apoptotic (anti-angiogenic) | –
B2 | – | Moderate
